Assays:
Format in all cases: biochemical, Z. mays
[1] = tested on: 4-hydroxyphenylpyruvate dioxygenase (HPPD); experiment: ON rate ratio: HPPD reaction rate with vs without inhibitor in the 70 to 90 second interval; settings: Table 5; tembotrione
Procedure, shortened: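 Time courses of HPPD reactions, 60 or 120 nM enzyme with 100 μM HPP substrate, run with and without 4 μM inhibitor (e.g. mesotrione, tembotrione). Value is the rate with inhibitor over rate without, taken over 70–90 s; higher ratio reflects slower kON.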

[2] = tested on: 4-hydroxyphenylpyruvate dioxygenase (HPPD); experiment: Insensitivity parameter (ON × OFF) and trait fitness (ON × OFF × kcat/KM or × kcat); settings: for ON × OFF × kcat, Value / ON × OFF × kcat, Fold vs wt / ON × OFF, fold vs wt / ON × OFF (parameters with tembotrione): Table 5, tembotrione; for ON × OFF × kcat, Fold vs wt / ON × OFF, fold vs wt: fold vs maize wild type HPPD; for ON × OFF (parameters with tembotrione): insensitivity parameter
Procedure, shortened: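 Calculated, not measured directly: ON rate ratio × OFF rate ratio gives an insensitivity parameter serving as a KD surrogate.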

[3] = tested on: 4-hydroxyphenylpyruvate dioxygenase (HPPD); experiment: Estimate of kcat from initial rate at saturating hydroxyphenylpyruvate without inhibitor (ON rate ratio assay); settings: Table 5; single substitutions in Round 7 variant 9070 (SEQ ID NO:2); estimate from initial rate at saturating hydroxyphenylpyruvate without inhibitor
Procedure, shortened: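 Reactions used 60 or 120 nM HPPD and saturating 100 μM hydroxyphenylpyruvate without inhibitor. kcat was estimated from the initial rate at the known enzyme concentration.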

[4] = tested on: 4-hydroxyphenylpyruvate dioxygenase (HPPD); experiment: HPPD activity coupled assay with HGD; substrate saturation kinetic parameters (kcat, KM); settings: Table 6; for kcat: single substitutions in SEQ ID NO:2
Procedure: Wild type and shuffled variant genes were cloned into pVER7062, a modified version of pET24a(+)(Novagen), which places six histidine residues at the N-terminus of the expressed protein. Vectors were electroporated into E. coli host strain BL21(DE3). Cells were grown at 30 C in rich medium such as 2×YT containing the selection antibiotic, kanamycin. At a density of about 0.6 OD600, IPTG was added to 0.2 mM, the temperature was reduced to 16 C and growth continued for another 24 hrs. Cells were harvested by centrifugation and stored at −80 C. Cell pellets were lysed in BPER (Pierce) protein extraction reagent containing 0.2 mg/ml lysozyme, 1 mM dithiothreitol, protease inhibitor cocktail (Sigma, bacterial cocktail) and endonuclease. Insoluble cellular debris was removed by centrifugation. HPPD protein was purified from the soluble protein solution by affinity chromatography on the nickel form of nitrilotriacetic acid (Ni-NTA) resin (Qiagen). Protein concentrations were determined by the Bradford method, as supplied by Bio-Rad.
HPPD catalyzes the conversion of 4-hydroxyphenylpyruvate (HPP) to homogentisate (FIG. 17). […] However, the product of the ensuing reaction in tyrosine metabolism, maleylacetoacetate, absorbs strongly at 320 nm. Furthermore, the enzyme catalyzing that reaction is also a dioxygenase having similar mechanism and buffer requirements as HPPD, making homogentisate dioxygenase (HGD) an ideal partner in a coupled assay, as shown.
The HDG gene from Pseudomonas aeruginosa (Amaya (2004) Arch Biochem Biophys 421, 135-142) was cloned into pVER7062 and electroporated into E. coli strain BL21(DE3). The enzyme was produced by methods similar to those described for HPPD. The purified enzyme has a KM for homogentisate of 23 μM and a kcat of 100/sec, properties highly suited for instantly converting the homogentisate produced by HPPD to maleylacetoacetate.
HPPD activity was measured by placing an aliquot (e.g., 6 μl) of the substrate HPP at 50-fold the desired final concentration into the wells of a low UV-absorbing assay plate. Reactions were started by adding a mixture (e.g., 294 μl) containing 25 mM Hepes, pH 7, 2 mM ascorbate, 10 μM FeSO4, 1 to 100 μM HPP, 50 nM HGD and 5 to 240 nM HPPD. Absorbance at 320 nm was monitored continuously in a plate-reading spectrophotometer (Spectramax, Molecular Devices).
The catalytic performance of wild-type HPPD and variants generated by shuffling was assessed by determining the substrate saturation kinetic parameters. The Michaelis-Menten kinetics protocol of the Spectramax software was customized for HPP concentrations ranging from 3.33 μM to 100 μM. Reaction rates were measured as described above for each concentration of HPP. The software returns values of KM and Vmax using the Lineweaver-Burke transformation of the Michaelis-Menten equation.

[5] = tested on: 4-hydroxyphenylpyruvate dioxygenase (HPPD); experiment: OFF rate ratio: release of inhibitor from pre-formed enzyme-inhibitor complex; settings: Table 5; tembotrione
Procedure, shortened: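 HPPD (7.2 μM) pre-incubated 1 h at RT with inhibitor (8 μM), then diluted into 25 mM Hepes pH 7, 2 mM ascorbate, 10 μM FeSO4, 100 μM HPP, 50 nM HGD; A320 followed 12 min. Ratio = steady-state rate with inhibitor over initial rate of inhibitor-free enzyme.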

[6] = DKN (diketonitrile form of isoxaflutole)
[7] = DKN (isoxaflutole diketonitrile)

| ON ratio (parameters with tembotrione) [1] | Insensitivity parameter, ON × OFF [2, 6] | Insensitivity parameter, ON × OFF ([2]; Mesotrione, Table 6) | Insensitivity parameter, ON × OFF ([2]; Sulcotrione) | ON × OFF, fold vs wt [2] | ON × OFF (parameters with tembotrione) [2] | Insensitivity parameter, ON × OFF ([2]; Tembotrione) | Insensitivity parameter, ON × OFF ([2]; Topramezon) | OFF ratio (parameters with tembotrione) [5] | Molecule | ON × OFF × kcat/km fold vs Round 7, variant 9070 [2, 7] | ON × OFF × kcat/km fold vs Round 7, variant 9070 ([2]; Sulco (sulcotrione)) | ON × OFF × kcat, Value [2] | ON × OFF × kcat, Fold vs wt [2] | ON × OFF × kcat/km fold vs Round 7, variant 9070 ([2]; Topra (topramezone)) | ON × OFF × kcat/km fold vs Round 7, variant 9070 ([2]; meso (mesotrione)) | ON × OFF × kcat/km fold vs Round 7, variant 9070 ([2]; tembo (tembotrione)) | kcat [3] | Km [4] | kcat [4] |
| --- | --- | --- | --- | --- | --- | --- | --- | --- | --- | --- | --- | --- | --- | --- | --- | --- | --- | --- | --- |
| 0.75 | 0.23 | 0.44 | 0.54 | 28.7 | 0.15 | 0.16 | 0.22 | 0.20 | 340K: single substitution R340K in SEQ ID NO:2 (protein, Zea mays variant form created by artificial means.) MGPTPTATAAGAAVAAASAAEQAAFRLVGHRNFVRFNPRSDRFQTLAFHHVELWCADAASAAGRFSFALGVPLAARSDLSTGNSAHASLLLRSGSLSLLFTAPYAHGADAATAALPSFSAAAARRFAADHGLAVRAVALRVADAEDAFRASVAAGARPAFGPVDLGRGFRLAEVELYGDVVLRYVSYPDGAAGEPFLPGFEGVASPGAADYGLSRFDHIVGNVPELAPAAAYMAGFTGFHEFAEFTTEDVGTTESGLNSMALANNSENVLLPLNEPVHGTKRRSQIQTFLDHHGGPGVQHIALASDDVLRTLREMRARSAMGGFEFLPPPLSDYYDGVRKCAGDVLTEAQINECQELGVMVDRDDQGVLLQIFTKPVGDRPTFFLEIIQRIGCMEKDEKGQEYQKGGCGGFGKGNFGQLFKSIEDYEKSLEAKQAAAAATAQGS | 2.2 | 1.3 | 6.56 | 6.13 | 1.1 | 1.3 | 1.2 | 44.7 min⁻¹ | 2410 nM | 73.5 min⁻¹ |
| 0.75 | 0.26 | 0.46 | 0.56 | 27.0 | 0.14 | 0.15 | 0.21 | 0.19 | 387L: single substitution I387L in SEQ ID NO:2 (protein, Zea mays variant form created by artificial means.) MGPTPTATAAGAAVAAASAAEQAAFRLVGHRNFVRFNPRSDRFQTLAFHHVELWCADAASAAGRFSFALGVPLAARSDLSTGNSAHASLLLRSGSLSLLFTAPYAHGADAATAALPSFSAAAARRFAADHGLAVRAVALRVADAEDAFRASVAAGARPAFGPVDLGRGFRLAEVELYGDVVLRYVSYPDGAAGEPFLPGFEGVASPGAADYGLSRFDHIVGNVPELAPAAAYMAGFTGFHEFAEFTTEDVGTTESGLNSMALANNSENVLLPLNEPVHGTKRRSQIQTFLDHHGGPGVQHIALASDDVLRTLREMRARSAMGGFEFLPPPLSDYYDGVRRCAGDVLTEAQINECQELGVMVDRDDQGVLLQIFTKPVGDRPTFFLELIQRIGCMEKDEKGQEYQKGGCGGFGKGNFGQLFKSIEDYEKSLEAKQAAAAATAQGS | 1.6 | 1.3 | 4.58 | 4.28 | 1.0 | 1.3 | 1.1 | 33.3 min⁻¹ | 2460 nM | 74.3 min⁻¹ |
| 0.77 | 0.25 | 0.37 | 0.47 | 25.0 | 0.13 | 0.22 | 0.27 | 0.17 | 211L: single substitution Y211L in SEQ ID NO:2 (protein, Zea mays variant form created by artificial means.) MGPTPTATAAGAAVAAASAAEQAAFRLVGHRNFVRFNPRSDRFQTLAFHHVELWCADAASAAGRFSFALGVPLAARSDLSTGNSAHASLLLRSGSLSLLFTAPYAHGADAATAALPSFSAAAARRFAADHGLAVRAVALRVADAEDAFRASVAAGARPAFGPVDLGRGFRLAEVELYGDVVLRYVSYPDGAAGEPFLPGFEGVASPGAADLGLSRFDHIVGNVPELAPAAAYMAGFTGFHEFAEFTTEDVGTTESGLNSMALANNSENVLLPLNEPVHGTKRRSQIQTFLDHHGGPGVQHIALASDDVLRTLREMRARSAMGGFEFLPPPLSDYYDGVRRCAGDVLTEAQINECQELGVMVDRDDQGVLLQIFTKPVGDRPTFFLEIIQRIGCMEKDEKGQEYQKGGCGGFGKGNFGQLFKSIEDYEKSLEAKQAAAAATAQGS | 1.1 | 0.9 | 4.72 | 4.41 | 1.1 | 0.9 | 1.1 | 36.9 min⁻¹ | 3200 nM | 77.6 min⁻¹ |
| 0.73 | 0.18 | 0.39 | 0.47 | 21.2 | 0.11 | 0.15 | 0.22 | 0.15 | 434R: single substitution Q434R in SEQ ID NO:2 (protein, Zea mays variant form created by artificial means.) MGPTPTATAAGAAVAAASAAEQAAFRLVGHRNFVRFNPRSDRFQTLAFHHVELWCADAASAAGRFSFALGVPLAARSDLSTGNSAHASLLLRSGSLSLLFTAPYAHGADAATAALPSFSAAAARRFAADHGLAVRAVALRVADAEDAFRASVAAGARPAFGPVDLGRGFRLAEVELYGDVVLRYVSYPDGAAGEPFLPGFEGVASPGAADYGLSRFDHIVGNVPELAPAAAYMAGFTGFHEFAEFTTEDVGTTESGLNSMALANNSENVLLPLNEPVHGTKRRSQIQTFLDHHGGPGVQHIALASDDVLRTLREMRARSAMGGFEFLPPPLSDYYDGVRRCAGDVLTEAQINECQELGVMVDRDDQGVLLQIFTKPVGDRPTFFLEIIQRIGCMEKDEKGQEYQKGGCGGFGKGNFGQLFKSIEDYEKSLEAKRAAAAATAQGS | 1.1 | 1.1 | 5.63 | 5.26 | 1.1 | 1.1 | 1.1 | 52.1 min⁻¹ | 2740 nM | 80.9 min⁻¹ |
